Assay results: patent EP1906184A1 (KYOWA HAKKO KOGYO CO., LTD., dated 2008)

B1: anti-human VEGF receptor Flt-1 mouse monoclonal antibody KM1732 (antibody, V domains shown)
VH: QGQMQQSGAELVKPGASVKLSCKPSGFTFSSNYISWLKQKPGQSLEWIAWIYAGTGDASYNQKFTAKAHVTVDTSSSTAYMQLSSLTTEDSAIYYCARHGGDGYWFAYWGQGTLVTVSA
VL: QLVLTQSPAIMSASQGEKVTMTCSASSSVSYMHWYQQKSGTSPKRWIYDTSKLPSGVPARFSGSGSGTSYSLTISSMEAEDAATYYCQQWSSNPPTFGAGTKLELK
notes: Mouse IgG1 from hybridoma KM1732 (FERM BP-5698); also called anti-human Flt-1 monoclonal antibody KM1732
B2: anti-human VEGF receptor Flt-1 mouse monoclonal antibody KM1750 (antibody, V domains shown)
VH: QAFLQQSGAELVRPGASVKMSCKASGYTFINYNMHWVKQTPRQGLEWIGAIFPGNGFTSYNQKFKGKATLTVDKSSSTVYMQLRSLTSEDSAVYFCARDGDYYFDYWGQGTTLTVSS
VL: QIVLTQSPAIMSASLGEEITLTCSASSSVSYMHWYQQKSGTSPKLLIYRTSNLASGVPFRFSGSGSGTFYSLTISSVEAEDAADYYCHQWSMYTFGGGTKLEIK
notes: Mouse IgG2b from hybridoma KM1750 (FERM BP-5700)
B3: anti-human VEGF receptor Flt-1 human CDR-grafted antibody KM8550 (antibody, V domains shown)
VH: QVQLVQSGAEVKKPGASVKVSCKASGYTFINYNMHWVRQAPGQGLEWMGAIFPGNGFTSYNQKFKGRVTITVDKSTSTAYMELSSLRSEDTAVYYCARDGDYYFDYWGQGTLVTVSS
VL: DIQMTQSPSSLSASVGDRVTITCSASSSVSYMHWYQQKPGKAPKLLIYRTSNLASGVPSRFSGSGSGTDFTLTISSLQPEDFATYYCHQWSMYTFGQGTKVEIK
notes: Human CDR-grafted IgG; also called 1750HV0 + 1750LV0(I); pKANTEX1750HV0LV0(I)
B4: anti-human VEGF receptor Flt-1 human CDR-grafted antibody KM8551 (antibody, V domains shown)
VH: QVQLVQSGAEVKKPGASVKVSCKASGYTFINYNMHWVRQAPGQGLEWMGAIFPGNGFTSYNQKFKGRVTITVDKSTSTAYMELSSLRSEDTAVYYCARDGDYYFDYWGQGTLVTVSS
VL: DIVMTQSPDSLAVSLGERATINCSASSSVSYMHWYQQKPGQPPKLLIYRTSNLASGVPDRFSGSGSGTDFTLTISSLQAEDVAVYYCHQWSMYTFGQGTKVEIK
notes: Human CDR-grafted IgG; also called 1750HV0 + 1750LV0(IV); pKANTEX1750HV0LV0(IV)
B5: anti-human VEGF receptor Flt-1 human CDR-grafted antibody KM8552 (antibody, V domains shown)
VH: QVQLVQSGAEVKKPGASVKVSCKASGYTFINYNMHWVRQAPGQGLEWMGAIFPGNGFTSYNQKFKGRVTITVDKSTSTAYMQLRSLRSEDTAVYFCARDGDYYFDYWGQGTLVTVSS
VL: DIQMTQSPSSLSASVGDRVTITCSASSSVSYMHWYQQKPGKAPKLLIYRTSNLASGVPSRFSGSGSGTDFTLTISSLQPEDFATYYCHQWSMYTFGQGTKVEIK
notes: Human CDR-grafted IgG with modified FR in VH; also called 1750HV3 + 1750LV0(I); pKANTEX1750HV3LV0(I)
B6: anti-human VEGF receptor Flt-1 human CDR-grafted antibody KM8555 (antibody, V domains shown)
VH: QVQLVQSGAEVKKPGASVKVSCKASGYTFINYNMHWVRQAPGQGLEWMGAIFPGNGFTSYNQKFKGRVTITVDKSTSTAYMQLRSLRSEDTAVYFCARDGDYYFDYWGQGTLVTVSS
VL: DIQMTQSPSSLSASVGEEVTITCSASSSVSYMHWYQQKPGKAPKLLIYRTSNLASGVPSRFSGSGSGTFYTLTISSLQPEDFATYYCHQWSMYTFGQGTKVEIK
notes: Human CDR-grafted IgG with modified FR in VH and VL; also called 1750HV3 + 1750LV4; pKANTEX1750HV3LV4
B7: anti-human VEGF receptor Flt-1 human CDR-grafted antibody KM8554 (antibody, V domains shown)
VH: QVQLVQSGAEVKKPGASVKVSCKASGYTFINYNMHWVRQAPGQGLEWMGAIFPGNGFTSYNQKFKGRVTITVDKSTSTAYMELSSLRSEDTAVYYCARDGDYYFDYWGQGTLVTVSS
VL: DIQMTQSPSSLSASVGEEVTITCSASSSVSYMHWYQQKPGKAPKLLIYRTSNLASGVPSRFSGSGSGTFYTLTISSLQPEDFATYYCHQWSMYTFGQGTKVEIK
notes: Human CDR-grafted IgG with modified FR in VL; also called 1750HV0 + 1750LV4; pKANTEX1750HV0LV4
B8: anti-human VEGF receptor Flt-1 human CDR-grafted antibody KM8553 (antibody, V domains shown)
VH: QVQLVQSGAEVKKPGASVKVSCKASGYTFINYNMHWVRQAPGQGLEWMGAIFPGNGFTSYNQKFKGRVTITVDKSTSTAYMQLRSLRSEDTAVYFCARDGDYYFDYWGQGTLVTVSS
VL: DIVMTQSPDSLAVSLGERATINCSASSSVSYMHWYQQKPGQPPKLLIYRTSNLASGVPDRFSGSGSGTDFTLTISSLQAEDVAVYYCHQWSMYTFGQGTKVEIK
notes: Human CDR-grafted IgG with modified FR in VH; also called 1750HV3 + 1750LV0(IV); pKANTEX1750HV3LV0(IV)
B9: anti-human VEGF receptor Flt-1 human chimeric antibody KM2532 (antibody, V domains shown)
VH: QGQMQQSGAELVKPGASVKLSCKPSGFTFSSNYISWLKQKPGQSLEWIAWIYAGTGDASYNQKFTAKAHVTVDTSSSTAYMQLSSLTTEDSAIYYCARHGGDGYWFAYWGQGTLVTVSA
VL: QLVLTQSPAIMSASQGEKVTMTCSASSSVSYMHWYQQKSGTSPKRWIYDTSKLPSGVPARFSGSGSGTSYSLTISSMEAEDAATYYCQQWSSNPPTFGAGTKLELK
B10: anti-human VEGF receptor Flt-1 human chimeric antibody KM2550 (antibody, V domains shown)
VH: QAFLQQSGAELVRPGASVKMSCKASGYTFINYNMHWVKQTPRQGLEWIGAIFPGNGFTSYNQKFKGKATLTVDKSSSTVYMQLRSLTSEDSAVYFCARDGDYYFDYWGQGTTLTVSS
VL: QIVLTQSPAIMSASLGEEITLTCSASSSVSYMHWYQQKSGTSPKLLIYRTSNLASGVPFRFSGSGSGTFYSLTISSVEAEDAADYYCHQWSMYTFGGGTKLEIK

What follows are binders tested against T1, soluble human VEGF receptor KDR 7N (human, UniProt P35968 20-757) (assay: ELISA, receptor coated at 4 µg/ml).
T1 construct: range 1-738; The range 1-738 counts on the mature protein, not on the precursor; Expressed in High Five insect cells (purity 70 to 80%); not shown: two amino acid residues derived from a linker
T1 sequence (P35968 20-757): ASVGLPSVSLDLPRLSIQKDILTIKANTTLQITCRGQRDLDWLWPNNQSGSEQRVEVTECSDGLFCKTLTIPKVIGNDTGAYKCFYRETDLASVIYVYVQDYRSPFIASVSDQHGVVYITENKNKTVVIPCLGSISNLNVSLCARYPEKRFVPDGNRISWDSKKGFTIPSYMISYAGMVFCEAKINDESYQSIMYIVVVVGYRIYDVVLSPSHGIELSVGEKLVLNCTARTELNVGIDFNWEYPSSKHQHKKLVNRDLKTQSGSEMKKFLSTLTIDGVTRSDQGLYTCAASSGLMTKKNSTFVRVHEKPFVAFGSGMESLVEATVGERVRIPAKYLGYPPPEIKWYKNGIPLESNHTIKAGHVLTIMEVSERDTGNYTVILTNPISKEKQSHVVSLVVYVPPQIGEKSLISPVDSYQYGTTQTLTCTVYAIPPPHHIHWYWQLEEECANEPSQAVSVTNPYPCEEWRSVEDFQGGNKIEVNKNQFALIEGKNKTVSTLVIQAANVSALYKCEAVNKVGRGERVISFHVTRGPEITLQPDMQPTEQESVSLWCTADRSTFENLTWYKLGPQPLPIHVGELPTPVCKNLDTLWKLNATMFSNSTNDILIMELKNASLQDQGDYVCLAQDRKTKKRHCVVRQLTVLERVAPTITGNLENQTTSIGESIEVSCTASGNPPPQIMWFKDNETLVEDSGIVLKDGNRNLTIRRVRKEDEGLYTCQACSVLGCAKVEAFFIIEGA
B1: no binding (tested: 0.1 µg/ml).
B2: no binding (tested: 0.1 µg/ml).

Each binder was assayed against T1, soluble human VEGF receptor KDR 7N (assay: ELISA, receptor coated at 10 µg/ml (3-fold dilutions)).
B3: no binding (tested: 5 µg/ml).
B4: no binding (tested: 5 µg/ml).
B5: no binding (tested: 5 µg/ml).
B6: no binding (tested: 5 µg/ml).
B7: no binding (tested: 5 µg/ml).
B8: no binding (tested: 5 µg/ml).

These binders were tested against T1, soluble human VEGF receptor KDR 7N (assay: ELISA, receptor coated at 4 µg/ml, antibody concentration varied).
B9: no binding (tested: 0.0152 to 100 ng/ml).
B10: no binding (tested: 0.0152 to 100 ng/ml).
